Positions count from the first letter of the chain named. Values joined by “and” are separate entries in the source; they are usually repeats but may differ in a detail not shown here. Identical values can stand only once. Like-named read-outs stand apart in the source and are kept apart here. One block for each binder: values may come before it.
Columns and labels:
[1] = target: T1, CD137 on Jurkat NFkB reporter cells (human, UniProt Q07011 24-255); test: cell-based or functional assay
human PD-L1 on cells [2] = target: T2, human PD-L1 on cells (human, UniProt Q9NZQ7 19-290); test: cell-based or functional assay
[3] = target: T1, CD137 on Jurkat NFkB reporter cells; test: cell-based or functional assay; remark: listed apart in the source
[4] = target: T1, CD137 on Jurkat NFkB reporter cells; test: cell-based or functional assay; remark: listed apart in the source
[5] = target: T1, CD137 on Jurkat NFkB reporter cells; test: cell-based or functional assay; remark: listed apart in the source
[6] = target: T1, CD137 on Jurkat NFkB reporter cells; test: cell-based or functional assay; remark: listed apart in the source
[7] = target: T1, CD137 on Jurkat NFkB reporter cells; test: cell-based or functional assay; remark: listed apart in the source
[8] = target: T1, CD137 on Jurkat NFkB reporter cells; test: cell-based or functional assay; remark: listed apart in the source
[9] = target: T1, CD137 on Jurkat NFkB reporter cells; test: cell-based or functional assay; remark: listed apart in the source
human PD-L1 on cells [10] = target: T2, human PD-L1 on cells; test: cell-based or functional assay; remark: listed apart in the source
human PD-L1 on cells [11] = target: T2, human PD-L1 on cells; test: cell-based or functional assay; remark: listed apart in the source
human PD-L1 on cells [12] = target: T2, human PD-L1 on cells; test: cell-based or functional assay; remark: listed apart in the source
[13] = target: human PD-L1-Fc chimeric protein (human); test: SPR, PD-L1-Fc captured, binder injected

B1: PRO1057 (other)
chain: DIQMTQSPSSLSASVGDRVTITCQASQSINDYLAWYQQKPGKAPKLLIYKASTLASGVPSRFSGSGSGTDFTLTISSLQPEDFATYYCQQGYIITDIDNVFGTGTKVTVLGGGGGSQVQLQESGPGLVKPSETLSLTCKVSGFSFSNSYWICWIRQPPGKGLEWIGCTFVGSSDSTYYANWAKGRVTISVDSSKNQFSLKLSSVTAADTAVYYCARHPSDAVYGYANNLWGQGTLVTVSSGGGGSGGGGSGGGGSGGGGSIQMTQSPSSLSASVGDRVTITCQASQSINNVLAWYQQKPGKAPKLLIYRASTLASGVPSRFSGSGSGTDFTLTISSLQPEDFATYYCQSSYGNYGDFGTGTKVTVLGGGGGSQVQLQESGPGLVKPSETLSLTCKVSGFSFSSGYDMCWIRQPPGKGLEWIGCVVAGSVDITYYASWAKGRVTISVDSSKNQFSLKLSSVTAADTAVYYCARKDAYSDAFNLWGQGTLVTVSSGGGGSGGGGSVVMTQSPSSLSASVGDRVTITCQASQIISSRSAWYQQKPGQPPKLLIYQASKLASGVPSRFSGSGSGTDFTLTISSLQPEDFATYYCQCTYIDSNFGAFGGGTKLTVLGGGGGSGGGGSGGGGSGGGGSEVQLVESGGGLVQPGGSLRLSCAASGFSFSSSYWICWVRQAPGKGLEWVGCVFTGDGTTYYASWAKGRFTISRDNSKNTVYLQMNSLRAEDTATYFCARPVSVYYYGMDLWGQGTLVTVSS
max. activation (%), NF-kB reporter, CHO-PD-L1, HSA yes, 24h [1]: 663%
IC50, NFAT-luciferase reporter gene assay, with HSA (human PD-L1 on cells [2]): 0.665 µg/mL
EC50, NFkB-luciferase reporter, HCC827 with IFNy stimulation, 24h, +HSA [3]: 0.115 µg/mL
EC50, NFkB-luciferase reporter, HCC827 without IFNy stimulation, 24h, +HSA [3]: 0.0766 µg/mL
EC50, NFkB-luciferase reporter, PD-L1 expressing CHO cells, 24h, + HSA [4]: 0.792 µg/mL
EC50, NFkB-luciferase reporter, PD-L1 expressing CHO cells, 6h, + HSA [5]: 0.112 µg/mL

B3: PRO885 (bispecific antibody)
chain: DIQMTQSPSSLSASVGDRVTITCQASQSINDYLAWYQQKPGKAPKLLIYKASTLASGVPSRFSGSGSGTDFTLTISSLQPEDFATYYCQQGYIITDIDNVFGTGTKVTVLGGGGGSQVQLQESGPGLVKPSETLSLTCKVSGFSFSNSYWICWIRQPPGKGLEWIGCTFVGSSDSTYYANWAKGRVTISVDSSKNQFSLKLSSVTAADTAVYYCARHPSDAVYGYANNLWGQGTLVTVSSGGGGSGGGGSGGGGSGGGGSIQMTQSPSSLSASVGDRVTITCQASQSINNVLAWYQQKPGKAPKLLIYRASTLASGVPSRFSGSGSGTDFTLTISSLQPEDFATYYCQSSYGNYGDFGTGTKVTVLGGGGGSQVQLQESGPGLVKPSETLSLTCKVSGFSFSSGYDMCWIRQPPGKGLEWIGCVVAGSVDITYYASWAKGRVTISVDSSKNQFSLKLSSVTAADTAVYYCARKDAYSDAFNLWGQGTLVTVSS
EC50, NFkB-luciferase reporter, CHO-PD-L1 cells [6]: 0.00513 µg/mL and 0.00486 µg/mL and 0.0063 µg/mL
EC50 of IL-2 secretion, PBMC + CHO cells expressing PD-L1 (50000/well), anti-CD3 1 ug/ml (human PD-L1 on cells [10]): 0.0129 µg/mL
EC50 of IL-2 secretion, PBMC + CHO cells expressing PD-L1 (50000/well), anti-CD3 2 ug/ml (human PD-L1 on cells [10]): 0.052 µg/mL
EC50 of IL-2 secretion, PBMC + CHO cells expressing PD-L1 (100000/well), anti-CD3 1 ug/ml (human PD-L1 on cells [10]): 0.0862 µg/mL
EC50 of IL-2 secretion, PBMC + CHO cells expressing PD-L1 (100000/well), anti-CD3 2 ug/ml (human PD-L1 on cells [10]): 0.0419 µg/mL
EC50 of IL-2 secretion, PBMC + CHO cells expressing PD-L1 (200000/well), anti-CD3 1 ug/ml (human PD-L1 on cells [10]): 0.0806 µg/mL
EC50 of IL-2 secretion, PBMC + CHO cells expressing PD-L1 (200000/well), anti-CD3 2 ug/ml (human PD-L1 on cells [10]): 0.0301 µg/mL
max. activation (%), NF-kB reporter, CHO-PD-L1 [1]: 499%
max. activation (%), NF-kB reporter, HCC827 +IFNg [1]: 134%
max. activation (%), NF-kB reporter, HCC827 -IFNg [1]: 111%
IC50, NFAT-luciferase reporter gene assay (human PD-L1 on cells [2]): 0.137 µg/mL
EC50, NFkB-luciferase reporter, HCC827 cells without IFNg [7]: 0.0115 µg/mL and 0.0131 µg/mL and 0.013 µg/mL
EC50, NFkB-luciferase reporter, HCC827 with IFNy stimulation, 24h [3]: 0.00751 µg/mL
EC50, NFkB-luciferase reporter, HCC827 without IFNy stimulation, 24h [3]: 0.00952 µg/mL
EC50, NFkB-luciferase reporter, PD-L1 expressing CHO cells, 24h [4]: 0.0138 µg/mL
EC50, NFkB-luciferase reporter, PD-L1 expressing CHO cells, 24h, + HSA [4]: 0.0149 µg/mL
EC50, NFkB-luciferase reporter, CHO-PD-L1 cells [8]: 0.0117 µg/mL
EC50 of IL-2 secretion, PBMC stimulated with SEA (human PD-L1 on cells [11]): 0.0399 µg/mL
EC50, NFkB-luciferase reporter, PD-L1 expressing CHO cells, 6h [5]: 0.00784 µg/mL
EC50, NFkB-luciferase reporter, PD-L1 expressing CHO cells, 6h, + HSA [5]: 0.00792 µg/mL
EC50, NFkB-luciferase reporter, HCC827 cells stimulated with IFNg [9]: 0.00927 µg/mL and 0.00888 µg/mL and 0.00923 µg/mL

B6: PRO1123 (bispecific antibody)
chain: B3 chain with I154V, F197V, Y213F, A302P
EC50, NFkB-luciferase reporter, CHO-PD-L1 cells [6]: 0.00575 µg/mL
max. activation (%), NF-kB reporter, CHO-PD-L1 [1]: 219%
max. activation (%), NF-kB reporter, HCC827 +IFNg [1]: 154%
max. activation (%), NF-kB reporter, HCC827 -IFNg [1]: 123%
EC50, NFkB-luciferase reporter, HCC827 cells without IFNg [7]: 0.0161 µg/mL
EC50, NFkB-luciferase reporter, HCC827 cells stimulated with IFNg [9]: 0.0119 µg/mL

B7: PRO951 (bispecific antibody)
chain: DIQMTQSPSSLSASVGDRVTITCQASQSINDYLAWYQQKPGKAPKLLIYKASTLASGVPSRFSGSGSGTDFTLTISSLQPEDFATYYCQQGYIITDIDNVFGTGTKVTVLGGGGGSEVQLVESGGGLVQPGGSLRLSCAASGFSFNNDYDMCWVRQAPGKGLEWIGCIDTGDGSTYYASWAKGRFTISRDNSKNTVYLQMNSLRAEDTAVYYCAREAASSSGYGMGYFDLWGQGTLVTVSSGGGGSGGGGSGGGGSGGGGSIQMTQSPSSLSASVGDRVTITCQSSQSVYDNNWLAWYQQKPGKAPKLLIYRASNLASGVPSRFSGSGSGTDFTLTISSLQPEDFATYYCQGTYLSSNWYWAFGTGTKVTVLGGGGGSQVQLQESGPGLVKPSETLSLTCKVSGFSFSSGYDMCWIRQPPGKGLEWIGCVVAGSVDITYYASWAKGRVTISVDSSKNQFSLKLSSVTAADTAVYYCARKDAYSDAFNLWGQGTLVTVSS
max. activation (%), NF-kB reporter, CHO-PD-L1 [1]: 432%
IC50, NFAT-luciferase reporter gene assay (human PD-L1 on cells [2]): 0.0885 µg/mL
EC50, NFkB-luciferase reporter, CHO-PD-L1 cells [8]: 0.0337 µg/mL

B8: PRO997 (scFv)
scFv: DIQMTQSPSSLSASVGDRVTITCQASQSIGTYLAWYQQKPGKAPKLLIYRAFILASGVPSRFSGSGSGTDFTLTISSLQPEDFATYYCQSNFYSDSTTIGPNAFGTGTKVTVLGGGGGSGGGGSGGGGSGGGGSQVQLQESGPGLVKPSETLSLTCKVSGFSFNSDYWIYWIRQPPGKGLEWIGSIYGGSSGNTQYASWAQGRVTISVDSSKNQFSLKLSSVTAADTAVYYCARGYVDYGGATDLWGQGTLVTVSS
notes: also called 37-20-B03sc01; PRO977
fold higher potency on VH4 framework than on VH1 framework (PRO1013), NFAT reporter (human PD-L1 on cells [12]): ~2 fold
IC50, NFAT-luciferase reporter gene assay (human PD-L1 on cells [2]): 0.0111 µg/mL
EC50 of IL-2 secretion, PBMC stimulated with SEA (human PD-L1 on cells [11]): 0.0409 µg/mL
fold higher affinity against the STR graft of clone 33-03-G02 (PRO1126) [13]: ~2 fold

The next lines start with the values.

EC50, NFkB-luciferase reporter, CHO-PD-L1 cells [6]: 0.0795 µg/mL and 0.104 µg/mL and 0.0865 µg/mL
EC50, NFkB-luciferase reporter, HCC827 cells without IFNg [7]: 0.212 µg/mL and 0.11 µg/mL and 0.112 µg/mL
EC50, NFkB-luciferase reporter, HCC827 with IFNy stimulation, 24h [3]: 0.0528 µg/mL
EC50, NFkB-luciferase reporter, HCC827 without IFNy stimulation, 24h [3]: 0.0475 µg/mL
EC50, NFkB-luciferase reporter, PD-L1 expressing CHO cells, 24h [4]: 0.0466 µg/mL
EC50, NFkB-luciferase reporter, PD-L1 expressing CHO cells, 24h, + HSA [4]: 0.0782 µg/mL
EC50, NFkB-luciferase reporter, CHO-PD-L1 cells [8]: 0.0791 µg/mL
EC50, NFkB-luciferase reporter, PD-L1 expressing CHO cells, 6h [5]: 0.0565 µg/mL
EC50, NFkB-luciferase reporter, PD-L1 expressing CHO cells, 6h, + HSA [5]: 0.0777 µg/mL
EC50, NFkB-luciferase reporter, HCC827 cells stimulated with IFNg [9]: 0.114 µg/mL and 0.145 µg/mL and 0.108 µg/mL
B2: Urelumab (antibody, V domains shown)
VH: QVQLQQWGAGLLKPSETLSLTCAVYGGSFSGYYWSWIRQSPEKGLEWIGEINHGGYVTYNPSLESRVTISVDTSKNQFSLKLSSVTAADTAVYYCARDYGPGNYDWYFDLWGRGTLVTVSS
VL: EIVLTQSPATLSLSPGERATLSCRASQSVSSYLAWYQQKPGQAPRLLIYDASNRATGIPARFSGSGSGTDFTLTISSLEPEDFAVYYCQQRSNWPPALTFGGGTKVEIK

EC50, NFkB-luciferase reporter, CHO-PD-L1 cells [6]: 0.00368 µg/mL
max. activation (%), NF-kB reporter, CHO-PD-L1 [1]: 229%
max. activation (%), NF-kB reporter, HCC827 +IFNg [1]: 188%
max. activation (%), NF-kB reporter, HCC827 -IFNg [1]: 113%
EC50, NFkB-luciferase reporter, HCC827 cells without IFNg [7]: 0.00562 µg/mL
EC50, NFkB-luciferase reporter, HCC827 cells stimulated with IFNg [9]: 0.00483 µg/mL
B4: PRO1124 (bispecific antibody)
chain: B3 chain with V140A, I154V, V190K, F197V, Y213F, I261L, A302P

EC50, NFkB-luciferase reporter, CHO-PD-L1 cells [6]: 0.006 µg/mL
IC50, NFAT-luciferase reporter gene assay (human PD-L1 on cells [12]): 0.0481 µg/mL
fold improvement of neutralization potency against PRO885, NFAT reporter (human PD-L1 on cells [12]): 3 fold
max. activation (%), NF-kB reporter, CHO-PD-L1 [1]: 242%
max. activation (%), NF-kB reporter, HCC827 +IFNg [1]: 208%
max. activation (%), NF-kB reporter, HCC827 -IFNg [1]: 135%
EC50, NFkB-luciferase reporter, HCC827 cells without IFNg [7]: 0.00697 µg/mL
EC50, NFkB-luciferase reporter, HCC827 cells stimulated with IFNg [9]: 0.00548 µg/mL
B5: PRO1126 (bispecific antibody)
chain: B3 chain with I2F, M4L, A43S, V374S, V396A, I410V, G422A, V446K, F453V, Y469F

From patent EP3470426A1 (Numab Therapeutics AG, dated 2019)
